Reference: the nanobody polyreactivity screen of Harvey et al. (2022)

Assay: yeast display, Sf9 membrane polyspecificity reagent, FACS + sequencing; frameworks hold sequencing errors
Outline: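 Synthetic nanobody libraries on Saccharomyces cerevisiae BJ5465 were galactose-induced for 36–48 hours, stained 1 hour at 4 °C with 10% biotinylated, detergent-solubilized Sf9 membrane reagent and enriched on streptavidin microbeads. FACS then separated cells into low and high (top ~1%) gates by anti-HA (expression) and streptavidin (reagent binding) fluorescence. Genes were colony-PCR amplified, MiSeq 2 × 250 sequenced and CDR-length filtered. A clone's polyreactivity label is that of its gate of origin.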

Sequence | polyreactivity (PSR sort gate)
QVQLVESGGGLVQAGVSLRLSCASSGSIFPEYVMAWYRQAPGKERELVAAISWSGGSTYYADSVKGRITISRDNAKNTVYFQMNCLKQEATAVYYCNRVPSWRIDYDYWGQGTLVTVSS | low polyreactivity
QVQLVESGGGLVQAGGSLRLSCAASGINFRSYAMGWYRQAPGKERELVAAISSTGRTYYADSVKGRFTISRDNAKNTVYLQMISLKPEDTAVYYCNSKRYIWGQGTQVTVSS | high polyreactivity
QVQLVESGGGLVQAGGSLRLTCAASGRTLAKNAMGWYRQAPGKERELVAAISRRGGSTYYADSVKGRFTISRDNAKNTVYLQMNSLKPEDTAVYYCARASRQGYYQLSYDEFDYWGQGTQVTVSS | high polyreactivity
QVQLVESGGGLVQAGGSLRLSCAASGSTFLVYAMGWYRPAPGKERELVAAITQIDGSTYNADSVKGRFTISRDNSKNTVYLQRHSLKPEDTAVYYCAARYFWTYEYDYWGQGTQVTVSS | low polyreactivity
QVQLVESGGGLVQAGGSLRLSCAASGITFWDYAMGWYRQAPGKERELVAGISTRGGSTYYADSVKGRFTISRDNEKNTVYLQMNSLKPEDTAVYYCATDDPLSQINEQGMDYWGQGTQVTVSS | low polyreactivity
QVQLVESGGGLVQAGGSLRLSCAASGRIFTTNAMGWYRQAPGKERELVAAITSGASTKYADSVKGRFTISRDNAKNTVYLQMNCLKPEDTAVYYCNAKRGVNLRSNWYSHLRMDHWGQGTQVTVSS | low polyreactivity
QVQLVESGGGLVQAGGSLRLSCAASGRTSVRNAMGWYRQAPGKERELVAAISNGGRTNYADSVKGRFTISRDNAKNTVYLQMNSLKPEDTAVYYCAARGFWLYYHGGVRSGYDYWGQGTQVTVSS | high polyreactivity
QVQLVESGGCLVQAGGSLRLICAASGRIIDRNAMGWYRHAPGKERELVAAISSSGSTYYADSVKGRFTISRDNAKITVYLQMNSLKPEDTAVYYCNKRARHSGDFVWGHGYWGQGTQVNVSS | low polyreactivity
QVQLVESWGGLVQAGGSLRLSCAASGSIFAINAMGWYRQAPGTERELVAAIRSGGRTYYADSVKGRFTISRDNAKNTVYLQMNSLKPEDTAVYYCNAGGKWIGSDYCGQGTQVTVSS | high polyreactivity
QVQLVESGGGLVHAGGSLRLSCAASGITLVRYAMGWYRQAPGKERELVAAISSSGGSTYYADSVKGRFTISRDNAKNTVYLQMNSLKPEDTAVYYCNAYVHSRRVEFNYWGQGTQVTVSS | high polyreactivity
QVQLVESGGGLVQAGGSLRLSCAASGYTFFHNAMGWYRQAPGKERELVATISRGGGSTYYADSVKGRFTISRDNAKNTVYLQMNSLKPEDTAVYYCNKGVITYRRGYWGQGTQVTVSS | low polyreactivity
QVQLVESGGGLLKAGGSLRLISAASGSIFGYNTMGWYRQAPGKERELVADISVSGDDTYYADSVKGRFTISRDNAKNTVYLQMNSLKPEDTAVSYCNAVEYFGYYNTYDYWGQGTQVTVSS | low polyreactivity
QVQLVESGGGLVQAGGSLRLSCAASGSIFKIYAMGWDRQAPGKERELVASITGSGGSTYYADSVKGRFTISRDNAKNTVYLQMNSLKPEDPAVYYCAVEAWSVPPYDYWGQGTQVTVSS | low polyreactivity
QVQLVESGGGLVQAGGSLRLSCAASGYTFSRYAMGWYRQAPGKERELVAAISSRGGSTYYADSVKGRFTISRDNAKNTVYLQMNSLKPADTAVYYCAADYGVGYGIVGSYYWGQGTQVTVSS | high polyreactivity
QVQLVESGGGLVQAGGSLRLSCAASGRTFSVNAMGWYRQAPGKERELVAAISWDGGSTYYADSVKGRFTISRDNAKNTVYLQMNSLKPEDTAVYYCIKDLYYAYDYWGQGTQVNVSS | low polyreactivity
QVQLVESGGGLVQAGGSLRLSCAASGFTFSDNAMVWYRQAPGKERELVAAISEGSGITYDADSVKGRFTISRDNAKNTVNLQMNSLKPEDNAVYYCAADWLSKYDYWGQGTQVTVSS | low polyreactivity
QVQLVESGGGLVQAGGSLRLSCAASGFTFSGYAMGWYRQAPGKERELVASISRRGGSTYYADSVKGRFTISRDNAKNTVYLQMNSLKPEDTAVYYCATLRGRLRFGYDYWGQGTQVTVSS | high polyreactivity
